Data from patent CN115232208A.

Target: 人可溶性BLyS (human soluble BLyS) (human) (UniProt Q9Y275)
Experiment: cell-based or functional assay

IC50 of inhibition of the NF-κB signal downstream of human BLyS binding TACI (luciferase reporter gene assay): 0.0517 mg/L
Substance: Benlysta (antibody)
